From the RNAGym collection of RNA variant scans (doi:10.1073/pnas.2313332121)
Variants at the floor of the assay were thinned out.

B1: TPR 5TU (parent)
chain: GGAUCUUCUCGAUCUAACAAAAAAGACAAAUCUGCCACAAAGCUUGAGAGCAUCUUCGGAUGCAGAGGCGGCAGCCUUCGGUGGCGCGAUAGCGCCAACGUUCUCAACUAUGACACGCAAAACGCGUGCUCCGUUGAAUGGAGUUUAUCAUG

Variants of: B1
Test: polymerase ribozyme fitness, log enrichment relative to wild type (log ratio); higher = more active; in vitro selection for triplet polymerase activity
Summary of the method: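 A heterodimeric triplet polymerase ribozyme had each of its subunits mutagenized by PCR into a library, which was transcribed. One round of in vitro selection, done in triplicate, annealed each library with a biotinylated primer, its partner subunit and triplets, then incubated it frozen at −7 °C before gel excision of extended constructs, streptavidin-bead capture and RT-PCR. Fitness is the logarithm of genotype enrichment relative to wild-type enrichment, based on Illumina sequencing of inputs and outputs and inverse-variance-weighted replicate averages. A base-2 logarithm is used, and genotypes were kept only with ≥10 input reads and ≥1 read per output.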

Variant | polymerase ribozyme fitness (log ratio)
U6G C54A C75G C85A C105U A106U U111A G136U | ≤ -4.2
A49G A120U | -0.63
A16G A24U A73U | -2.25
U6G A12U G42C C76U C96G U134G U146G | ≤ -4.2
U109G | -0.578
A30C C79U A119U C129G U134G A150G | -4.04
A21C C57A A91G C99U G140C | ≤ -4.2
G46U A138C | -3.8
A21C C27G G83C A113U G140A | ≤ -4.2
C51A C57G | -2.19
C85U U144C | 0.118
C27U A30U U55A G65U U102C A110G U111G C131A U134A | ≤ -4.2
A20U A23U A37U C51U C69A C105U | ≤ -4.2
A41G G65A | -0.45
C5A G42C G84C C85A G86A G92C | ≤ -4.2
A20C U44A A49C C96G C103A G141C | ≤ -4.2
C5G G50A C87U | -2.86
G59A U61A C79U G83A A121C | ≤ -4.2
U6G A28U C38U A66G C95G A120U A150U | ≤ -4.2
U33A G71U C79G C87G C95G | ≤ -4.2
A47C C72U G92A | -3.53
A3G A37C G80U | -3.88
C93U C103G | -3.63
A16U A73G A107G A119G | ≤ -4.2

Variant | polymerase ribozyme fitness (log ratio)
G83C C87G C114U A120U A138G | ≤ -4.2
U56G U90A | -3.7
U55A C85U C114G G128A | ≤ -4.2
G11U A97G C103A U146A | -4.09
C43U C99G | ≤ -4.2
A12U A24G A49C C57U A73G G86U | ≤ -4.2
A17C C85U A120G G124U G143C | -3.22
C72U U101C | 0.482
C85A C96A G128C | -4.03
A30C A40C U56A A60G A66G A89U C93A C99U A106C G126U C131U U134A | ≤ -4.2
C35U G124A | -0.554
A17U G94C | -1.63
C54G C103U | -2.16
A49C C76G C95U C114A G143U | ≤ -4.2
C35G C76G A89G | -3.96
A12U C57U | -0.208
C54U U55G G80U A91G A98C | -3.9
G25C G83A A107C U134G | ≤ -4.2
A17C G94A A121U U145A U148C | -1.99
A16G C95U C96A G100U U101A C108A U139C U144A | ≤ -4.2
A24U U44A C57G G74U C76A G100A A138C | ≤ -4.2
C75U A113U G124U U144C | ≤ -4.2
A73G C75U C99A U101G A142G | ≤ -4.2
C43U U45G G46C A49U U82A A89U C108G | ≤ -4.2

Variant | polymerase ribozyme fitness (log ratio)
C5G C85U G88U C105G A119C | ≤ -4.2
C93G A119G | -3.48
U13G C51U U56A G86U A115U | ≤ -4.2
G84A C116G A121U | 0.52
C8U C38U C69A G83A A91C C118U | ≤ -4.2
C116G A122G | -0.408
A16U C57G U77A G88U | ≤ -4.2
U33A C105U | -3.8
C10A A22U A39U C85U G126A | ≤ -4.2
A47C G59A C85G | -2.62
C32G A60G U144G | ≤ -4.2
A26U U55G G88U G94A G124A C125G G126A A142U | ≤ -4.2
A21G G84A A137C | -3.28
G88U G92C G117U | -3.57
A22U C38A G50U U56A C75G C93U U134A | ≤ -4.2
U9G U56G G84U C87A U90G U109G U130C U139A | ≤ -4.2
U31A C103U | 0.00968
U7G A17C A39C A91G C114G | ≤ -4.2
C10A A17C C35U G59A A122U U146A | ≤ -4.2
A49U A52U A89G A98G | -3.98
A49C C87G | ≤ -4.2
G25A C54A G58A G84A A120G G126U | -3.36
C93U A121U U127C | -2.87
C85G A98U G124U A147C | -2.53

Variant | polymerase ribozyme fitness (log ratio)
U55A C63U C85U C103A G136A A147U | -0.434
C57U C75G G81A C87G A120G | ≤ -4.2
A19C | 0.425
C32G C57U G83U C103A C116U U127G G143U | ≤ -4.2
G48U U148C | -3.36
C63G G68U G71A U78G C85G G100A G141U | ≤ -4.2
A12U G126A | -0.204
U45A U61A | -4.16
A19U U104A | -0.0348
G34C C93U A98U | -3.85
G50C U56G A64G G83A C105G U109G | ≤ -4.2
G48C A49C | -3.92
U53A G59A | -0.147
A47G U145G | -0.0566
G34C C57U G80C C149U | ≤ -4.2
C8G A29U | -4.04
C99U C125U U144G | -0.905
G59A C85G G100A U134G U144G A150C | ≤ -4.2
C51U G67C U135C | ≤ -4.2
C51U G59A C95A C125G | -1.53
C14G C69A C96U C118U | ≤ -4.2
G68A A98U | -3.61
C14U A39G C93U G143A | ≤ -4.2
U6G C76U C93G | -2.95

Variant | polymerase ribozyme fitness (log ratio)
U9G C85U | -3.41
U15G C57A A98U U102A A120U A122U | -1.85
G11C A30U U82C | ≤ -4.2
C14G A52C C85A | ≤ -4.2
U13G A106C | -1.83
C116A U139A U148A | -4.12
A97U A137U | ≤ -4.2
A30G C63A C99U | ≤ -4.2
U55A C93G | -3.83
A21C C85U U102G C118U U144G U151A | ≤ -4.2
A19U G59A G88U A89G G94U A113G | ≤ -4.2
A29C A30C G62C C125G A137G A142U | -4.11
A28G A49G C54U C85A U144G | ≤ -4.2
C72G A73C U102G C103G | ≤ -4.2
U31C C85G A89G C93U | ≤ -4.2
C93A | -2.17
C85U A142U | -0.394
G71C C79U A91C U135G | ≤ -4.2
U6G C10G G68A C69U G84A | ≤ -4.2
U7A C38U G65A A107G G136U U146C | ≤ -4.2
A28U C63U C72U C93U C105G A142U | ≤ -4.2
A16G C108U G126A | ≤ -4.2
A21G G74A A89U G92U | -3.57
G136A A142C | -0.134

Variant | polymerase ribozyme fitness (log ratio)
U9G U53G C87U A113U C116A G140U | ≤ -4.2
G59U A73G G86A C87U A138U A150G | ≤ -4.2
A37U G84A C118U A122U | -1.57
A20U C93U | -1.76
U9C C96U A110G | ≤ -4.2
A30U C38G C93U | ≤ -4.2
C27U C32G G50A C69A A97G U135G G140A | ≤ -4.2
A3U A28U C57U C75G | ≤ -4.2
U45A C96G A121U | -2.93
A20C | -0.413
A3G A22C | -0.593
A16U U31G G50A G58A C85U U104G A106U U134A | ≤ -4.2
A41C C123U G126A U135G | -3.4
C5U C85U U127C U145A | -2.5
C51U U56A G65U G81C G136C A138G G141C A142G | ≤ -4.2
A52U C87U | -2.81
C57A G92A | -3.13
G46U | -0.0995
A16G A49G A73C A91G U144C | ≤ -4.2
A20U C51U C79A C93A A97U U148G | ≤ -4.2
G84U C87G | -3.88
G11U A40U G84A C132A G143C | ≤ -4.2
C5G U45C | -1.55
C75U | -0.0565

Variant | polymerase ribozyme fitness (log ratio)
A24G C123U G140C | ≤ -4.2
C5A C85A | -1.31
A24U A40C A47U C69U C93U C118U U145A | -4.16
A37C C118U A121G | 0.0889
A40C A106U A138G | ≤ -4.2
C8G G48C | -4.08
A24U G50U G143C | -2.91
C35U C85G A98U A115G C132A U135A | ≤ -4.2
G34A U77A G88A | ≤ -4.2
C10A G48A U56G C79G C96A G143C | ≤ -4.2
C85G C96A A97G U102A C132A U135A | ≤ -4.2
A47U G50A C129U | -3.09
U61G G88C | ≤ -4.2
C38U A47G C51G C93U | -3.21
G50U A97G | -0.0233
U13A A24G C27U A39C G50A G84U | ≤ -4.2
U6G C38A A41C C95U U104C G126U | -2.03
A39U U61C | -4.04
U7G C18U A30U G59U U77A G83C A138C | ≤ -4.2
C114G G140U | -3.9
U13A C93U | -0.77
C87A U90C C105U | -3.59
C27G A52G U53A G100A | ≤ -4.2
